This note sets out measurements from publication PMC3059340 (Analytical chemistry, 2011).

This experiment addresses T1, Recombinant human E-selectin/Fc chimera (human, UniProt P16581 22-556).
T1 sequence (looked up): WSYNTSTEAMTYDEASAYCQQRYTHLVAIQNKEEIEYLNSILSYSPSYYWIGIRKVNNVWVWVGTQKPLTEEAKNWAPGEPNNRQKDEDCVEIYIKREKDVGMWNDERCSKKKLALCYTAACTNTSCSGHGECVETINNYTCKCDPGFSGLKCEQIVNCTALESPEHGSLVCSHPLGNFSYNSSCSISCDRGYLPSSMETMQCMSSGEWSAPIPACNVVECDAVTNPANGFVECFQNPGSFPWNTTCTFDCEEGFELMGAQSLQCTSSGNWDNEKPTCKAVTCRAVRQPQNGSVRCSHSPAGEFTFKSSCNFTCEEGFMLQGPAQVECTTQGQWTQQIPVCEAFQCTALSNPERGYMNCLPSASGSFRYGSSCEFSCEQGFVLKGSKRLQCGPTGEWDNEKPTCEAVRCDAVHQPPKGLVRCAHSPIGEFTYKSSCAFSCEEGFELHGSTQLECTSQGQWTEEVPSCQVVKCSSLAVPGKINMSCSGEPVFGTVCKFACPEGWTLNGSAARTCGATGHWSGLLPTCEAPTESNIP
The experiment can be described thus: SPR. A general note: SPR reads the build-up and loss of mass on a sensor chip optically.

B1: Recombinant human CD24 (natural protein, UniProt P25063 27-59, looked up)
chain: SETTTGTSSNSSQSTSNSGLAPNPTNATTKAAG
Take B1: the Ka worked out at 3.18e+08 M⁻¹; the Kd (as a rule, a measure of binding affinity in units of concentration) came to 3.4 nM; the koff (as a rule, a measure of how fast the partners let go of each other) was 0.0016 s⁻¹; the on-rate constant (kon) – broadly, the rate constant with which the complex forms – was determined as 379000 M⁻¹ s⁻¹.
